# Assay results taken from patent US20140194367A1, “AGROCYBE AEGERITA LECTIN AAL-2, AND ENCODING GENE THEREOF, PREPARATION METHOD THEREFOR AND APPLICATION THEREOF” (WUHAN ALPHA-OMEGA BIOLOGY TECHNOLOGY CO., LTD(CN), priority 2011, published 2014).
# “Also recorded” adds a separate entry of the source.
# B1: AAL-2: new lectin isolated from Agrocybe aegerita total protein by affinity chromatography; amino acid sequence SEQ ID NO: 2; 43 kDa monomer (protein, listed as Agrocybe aegerita)
# chain: MTSNVITQDLPIPVASRGFADIVGFGLDGVVIGRNAVNLQPFLAVKNFAQNAGGWLTTKHVRLIADTTGTGKGDIVGFGNAGVYVSVNNGKNTFADPPKMVIANFGYDAGGWRVEKHLRYLADIRKIGRADIIGFGEKGVLVSRNNGGLNFGPATLVLKDFGYDAGGWRLDRHLRFLADVTGNGHLDIVGFGDKHVFISRNNGDGTFAPAKSVIDNFCIDAGGWKIGDHPRFVADLTGDGTADIIGCGKAGCWVALNNGGGVFGQVKLVINDFGTDKGWQAAKHPRFIADLTGNGRGDVVGFGNAGVYVALNNGDGTFQSAKLVLKDFGVQQGWTVSKHRRFVVDLTGDGCADIIGFGEKETLVSYNDGKGNFGPVKALTNDFSFSGGKWAPETTVCWMANLDSSRH
# What was measured:
# H22 = test: AAL-2 induced apoptosis of H22 cells, Annexin V/PI flow cytometry; type: cell-based, mouse; conditions: 0.6, 1.2, 2.4 μmol/L; 24 hours and 36 hours; FIG. 6A
# Procedure: (§1) The experiment detects the killing activity of Agrocybe aegerita lectin AAL-2 (isolated protein in example 1) to the two tumor cell lines (H22, Huh7). H22 and Huh7 cell lines (purchased from ATCC) are cultured in RPMI1640 medium and DMEM medium (contains 10% fetal bovine serum, […] and 100 U/mL penicillin). Different concentrations of Agrocybe aegerita lectin AAL-2 prepared in the example 1 are added into tumor cells (final concentration is 0.6 μmol/L, 1.2 μmol/L, 2.4 μmol/L) and cultured for 24 hours and 36 hours, respectively. The treated cells are digested into single cell, stained with the Annexin V/PI dye and detected by the flow cytometry.
# Huh7 = test: AAL-2 induced apoptosis of Huh7 cells, Annexin V/PI flow cytometry; type: cell-based; conditions: 0.6, 1.2, 2.4 μmol/L; 24 hours and 36 hours; FIG. 6B
# Procedure: as §1
# [1] = test system: mouse hepatoma cell line H22; test: Tumor growth of H22 tumor bearing mice, in situ tumour injection; type: in vivo, BALB/c mice; conditions: 5 mg/kg in situ tumour injection every other day, 7 injections
# Procedure: In this experiment, the BALB/c mice (6-8weeks old, 20 g) are used for the antitumour activity assay. 0.1 ml mouse hepatoma cell line H22 (1×10^7 cells/mL) is subcutaneously inoculated into the oxter area of the BALB/c mice. 7 days after inoculation, inject the Agrocybe aegerita lectin AAL-2 by in situ tumour (protein isolated in example 1) (5 mg/kg, 0.1 ml/mouse). The control group is treated with 0.9% NaCl. Then take the injection every other day, a total of 7 injections, and record the size of the tumor tissue in mice. Tumor size=tumor tissue length L×width W^2/2.
# [2] = Carbohydrate binding specificity by glycochip technology; conditions: biotin labeled AAL-2, 200 μg/mL
# Procedure: (§2) In order to identify the carbohydrate binding activity of Agrocybe aegerita lectin AAL-2, the Agrocybe aegerita lectin AAL-2 is used to detect 465 kinds of carbohydrate by the glycochip technology.
# (§3) Firstly, the purified Agrocybe aegerita lectin AAL-2 (isolated in example 1) is labeled with the biotin and 200 μg/mL AAL-2 incubates the glycochip, then the fluorescein labeled streptavidin combines with the biotin labeled AAL-2. Results are shown in Table 4 (different carbohydrate affinity of AAL-2 arranged from high to low (top of 23 carbohydrates)).
# [3] = Glycochip binding, glycan 336
# Procedure: as §2, §3
# [4] = Glycochip binding, glycan 171
# Procedure: as §2, §3
# [5] = Glycochip binding, glycan 175
# Procedure: as §2, §3
# [6] = Glycochip binding, glycan 339
# Procedure: as §2, §3
# [7] = Glycochip binding, glycan 179
# Procedure: as §2, §3
# [8] = Glycochip binding, glycan 172
# Procedure: as §2, §3
# [9] = Glycochip binding, glycan 337
# Procedure: as §2, §3
# [10] = Glycochip binding, glycan 181
# Procedure: as §2, §3
# [11] = Glycochip binding, glycan 180
# Procedure: as §2, §3
# [12] = Glycochip binding, glycan 338
# Procedure: as §2, §3
# [13] = Glycochip binding, glycan 341
# Procedure: as §2, §3
# [14] = Glycochip binding, glycan 308
# Procedure: as §2, §3
# [15] = Glycochip binding, glycan 94
# Procedure: as §2, §3
# [16] = Glycochip binding, glycan 340
# Procedure: as §2, §3
# [17] = Glycochip binding, glycan 88
# Procedure: as §2, §3
# [18] = Glycochip binding, glycan 182
# Procedure: as §2, §3
# [19] = Glycochip binding, glycan 178
# Procedure: as §2, §3
# [20] = Glycochip binding, glycan 407
# Procedure: as §2, §3
# [21] = Glycochip binding, glycan 309; conditions: glycan number 309; 200 μg/mL AAL-2
# Procedure: as §2, §3
# [22] = Glycochip binding, glycan 176; conditions: glycan number 176; 200 μg/mL AAL-2
# Procedure: as §2, §3
# [23] = Glycochip binding, glycan 177; conditions: glycan number 177; 200 μg/mL AAL-2
# Procedure: as §2, §3
# [24] = Glycochip binding, glycan 190; conditions: glycan number 190; 200 μg/mL AAL-2
# Procedure: as §2, §3
# [25] = Glycochip binding, glycan 17; conditions: glycan number 17; 200 μg/mL AAL-2
# Procedure: as §2, §3
# [26] = rank of affinity, carbohydrate spectrum of AAL-2
molecule,measurement,setting,value
B1,apoptosis of H22 cells,H22,apoptosis inducing activity depends on the concentration; also recorded: significantly cause two hepatoma cell lines apoptosis
same,apoptosis of Huh7 cells,Huh7,apoptosis inducing activity depends on the concentration; also recorded: significantly cause two hepatoma cell lines apoptosis
same,tumor growth (tumor size),[1]; FIG. 7A,significantly inhibited; also recorded: inhibit the tumor growth
same,survival time of tumor bearing mice,[1]; FIG. 7B,prolonged obviously; also recorded: prolong the survival time
same,carbohydrate binding specificity,[2],specifically preferentially bind to carbohydrates with N-Acetylglucosamine as the terminal
same,average,"[3]; glycan number 336, 200 μg/mL AAL-2",30519
same,order (glycosyl structure affinity of top 18),[3]; [26],1
same,average,"[4]; glycan number 171, 200 μg/mL AAL-2",24487
same,order (glycosyl structure affinity of top 18),[4]; [26],2
same,average,"[5]; glycan number 175, 200 μg/mL AAL-2",21115
same,order (glycosyl structure affinity of top 18),[5]; [26],3
same,average,"[6]; glycan number 339, 200 μg/mL AAL-2",20868
same,order (glycosyl structure affinity of top 18),[6]; [26],4
same,average,"[7]; glycan number 179, 200 μg/mL AAL-2",19530
same,order (glycosyl structure affinity of top 18),[7]; [26],5
same,average,"[8]; glycan number 172, 200 μg/mL AAL-2",19311
same,order (glycosyl structure affinity of top 18),[8]; [26],6
same,average,"[9]; glycan number 337, 200 μg/mL AAL-2",19030
same,order (glycosyl structure affinity of top 18),[9]; [26],7
same,average,"[10]; glycan number 181, 200 μg/mL AAL-2",18737
same,order (glycosyl structure affinity of top 18),[10]; [26],8
same,average,"[11]; glycan number 180, 200 μg/mL AAL-2",17289
same,order (glycosyl structure affinity of top 18),[11]; [26],9
same,average,"[12]; glycan number 338, 200 μg/mL AAL-2",16141
same,order (glycosyl structure affinity of top 18),[12]; [26],10
same,average,"[13]; glycan number 341, 200 μg/mL AAL-2",11672
same,order (glycosyl structure affinity of top 18),[13]; [26],11
same,average,"[14]; glycan number 308, 200 μg/mL AAL-2",11572
same,order (glycosyl structure affinity of top 18),[14]; [26],12
same,average,"[15]; glycan number 94, 200 μg/mL AAL-2",11198
same,order (glycosyl structure affinity of top 18),[15]; [26],13
same,average,"[16]; glycan number 340, 200 μg/mL AAL-2",8758
same,order (glycosyl structure affinity of top 18),[16]; [26],14
same,average,"[17]; glycan number 88, 200 μg/mL AAL-2",8504
same,order (glycosyl structure affinity of top 18),[17]; [26],15
same,average,"[18]; glycan number 182, 200 μg/mL AAL-2",8464
same,order (glycosyl structure affinity of top 18),[18]; [26],16
same,average,"[19]; glycan number 178, 200 μg/mL AAL-2",7339
same,order (glycosyl structure affinity of top 18),[19]; [26],17
same,average,"[20]; glycan number 407, 200 μg/mL AAL-2",6992
same,order (glycosyl structure affinity of top 18),[20]; [26],18
same,average,[21],6078
same,average,[22],5896
same,average,[23],5782
same,average,[24],5571
same,average,[25],5331
